Assay results taken from IntAct's records for PubMed 25680527.

B1: Pirin (Homo sapiens), O00625 (parent)
chain: MGSSKKVTLSVLSREQSEGVGARVRRSIGRPELKNLDPFLLFDEFKGGRPGGFPDHPHRGFETVSYLLEGGSMAHEDFCGHTGKMNPGDLQWMTAGRGILHAEMPCSEEPAHGLQLWVNLRSSEKMVEPQYQELKSEEIPKPSKDGVTVAVISGEALGIKSKVYTRTPTLYLDFKLDPGAKHSQPIPKGWTSFIYTISGDVYIGPDDAQQKIEPHHTAVLGEGDSVQVENKDPKRSHFVLIAGEPLREPVIQHGPFVMNTNEEISQAILDFRNAKNGFERAKTWKSKIGN
partner: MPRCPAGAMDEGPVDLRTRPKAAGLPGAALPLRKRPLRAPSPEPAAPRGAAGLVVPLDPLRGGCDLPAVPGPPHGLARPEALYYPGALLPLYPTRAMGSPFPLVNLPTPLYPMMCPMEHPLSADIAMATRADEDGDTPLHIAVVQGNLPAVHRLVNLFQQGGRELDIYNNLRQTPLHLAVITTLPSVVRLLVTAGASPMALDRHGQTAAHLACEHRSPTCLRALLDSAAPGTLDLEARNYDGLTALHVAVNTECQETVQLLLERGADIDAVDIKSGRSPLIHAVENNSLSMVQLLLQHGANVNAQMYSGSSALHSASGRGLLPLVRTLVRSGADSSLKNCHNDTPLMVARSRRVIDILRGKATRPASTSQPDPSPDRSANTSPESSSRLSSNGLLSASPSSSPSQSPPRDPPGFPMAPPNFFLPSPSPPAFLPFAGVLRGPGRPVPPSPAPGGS

Variants of: B1
Settings: with bcl3_human BCL3, P20749

Variant | effect of a mutation on the interaction
MGSSKKVTLSVLSREQSEGVGARVRRSIGRPELKNLDPFLLFDEFKGGRPGGFPDHPHRGFETVSYLLEGGSMAHEDFCGHTGKMNPGDLQWMTAGRGILHAAMPCSEEPAHGLQLWVNLRSSEKMVEPQYQELKSEEIPKPSKDGVTVAVISGEALGIKSKVYTRTPTLYLDFKLDPGAKHSQPIPKGWTSFIYTISGDVYIGPDDAQQKIEPHHTAVLGEGDSVQVENKDPKRSHFVLIAGEPLREPVIQHGPFVMNTNEEISQAILDFRNAKNGFERAKTWKSKIGN [E103A] | disrupting interaction
